Data on two molecules can be found in US5861477A (priority 1996, dated 1999).

Data set [1] deals with M. lysodeikticus cell wall. The data set can be described thus: Lysozyme activity: hydrolysis of M. lysodeikticus. In kind it is biochemical, Micrococcus lysodeikticus. As to the method: Measurement of Lysozyme Activity. […] The decrease in turbidity was measured at 450 nm on a recording spectrophotometer. […] Kinetic constants were determined from the linear plots of 1/initial velocity (in change of absorbance/min) against 1/substrate concentration in mg/ml as described (Lineweaver, H. and Burk, D. (1934) J. Amer. Chem. Soc. 56, 658-666). […] Applicant always dedicated a separate spectrophotometer cuvette for this positive control. […] The decrease in turbidity was monitored at room temperature at 450 nm.

Data set [2] relates to yeast RNA. The data set can be described thus: Ribonuclease activity: hydrolysis of yeast RNA. In kind it is biochemical. As to the method: Measurement of Ribonuclease Activity. The catalytic activity of RNase and RnPepz were determined by their hydrolytic effects on yeast RNA (Kunitz, M. (1946) J. Biol. Chem. 164, 563-569; Gutte, B. and […]. Biol. Chem. 246, 1922-1941). […] The decrease in absorbance at 300 nm with time was measured on the recording spectrophotometer. Reaction mixtures that contained no catalyst as well as mixtures containing LyPepz or other cyclic peptides unrelated to RNase were used as controls. The kinetic parameters of the hydrolytic activities were determined by Lineweaver-Burk plots (Lineweaver, H. and Burk, D. (1934) J. Amer. Chem. Soc. 56, 658-666) of 1/absorbance change per minute against 1/substrate concentration in mg per ml. […] The change in absorbance with the test samples (RnPepz) was correlated for the small change obtained with the same amount of unrelated peptides (negative controls) acting on the corresponding concentration of substrate. […] The effects of disulfide-bond reduction on RNase and RnPepz activities were determined by premixing each catalyst (RNase, 1.095×10^-4 μmole; […] The reactions were monitored by the decrease in absorbance at 300 nm as above. The effects of inhibitors (denatured DNA or Ag^+) on activities were also done by pre-mixing RNase or RnPepz with denatured DNA (250 μg) or with 10 molar excess of AgNO3 prior to addition to RNA, using the same amounts of catalyst and substrate described for DTT. Denaturation of DNA was done by boiling a solution in water (1 mg/ml) for 10 min, then chilling immediately in ice.

The test system of data set [3] is M. lysodeikticus cell wall. Particulars: 0.125M NaCl; Neville et al. 1972; cited from earlier work.
The subject of data set [4] is yeast RNA. The following applies: Gutte et al. 1971; Edelhock and Coleman 1956; cited from earlier work.
The mark [5] stands for this setting: 10 molar excess, pre-mixed 3 hr.
Setting [6] is: hydrolysis of M. lysodeikticus, 25° C., 0.125M NaCl.
The mark [7] stands for this setting: hydrolysis of yeast RNA, 0.1M sodium acetate, pH 5.0, 25° C.

“And” between values parts separate entries of the source, which are not always exact repeats. Identical values can stand only once.

Turning to LYZ: hen egg lysozyme, in data set [1] (setting [5]), the “activity on M. lysodeikticus in presence of histamine” value is listed as “completely inhibited”, the “activity on M. lysodeikticus in presence of imidazole” value is recorded as “completely inhibited” and the “activity on M. lysodeikticus in presence of tryptamine” value was “completely inhibited”. In data set [1] (setting [6]), the Km – broadly, the substrate concentration at which the rate is half of its maximum – was 120.6 ± 4.0 mg/L and the kcat was 9.26 ± 0.12 OD units/μmole/sec. For the same molecule, the “hydrolytic activity on yeast RNA” value with yeast RNA [2] (in words) is reported as “no effect”. The Km reported value in data set [3] is 129 mg/L.

B1: RNase: bovine ribonuclease A (protein, UniProt P61823 27-150, looked up)
Ribonuclease pancreatic: KETAAAKFERQHMDSSTSAASSSNYCNQMMKSRNLTKDRCKPVNTFVHESLADVQAVCSQKNVACKNGQTNCYQSYSTMSITDCRETGSSKYPNCAYKTTQANKHIIVACEGNPYVPVHFDASV
For B1, the “activity on yeast RNA in presence of denatured DNA” value in the data set on yeast RNA [2] (250 μg denatured DNA) is on record as “completely inhibited”. Further, in the data set with yeast RNA [2] (10 molar excess of AgNO3), the “activity on yeast RNA in presence of Ag^+ (heavy metals)” value is “completely inhibited”. In addition, the “hydrolytic activity on yeast RNA at 10° C.” value with yeast RNA [2] (10° C.) was “neither RnPepz nor RNase had any measurable hydrolytic activity”. In the data set with yeast RNA [2] (setting [7]), the Km was found to be 1254 ± 460 mg/L and the kcat was 14.05 ± 6.85 OD units/μmole/sec. Moreover, the Km reported values with yeast RNA [4] is 1.20 mg/mL and 1.25 mg/mL.
